Experimental findings from paper PMC10352132 (Nature Structural & Molecular Biology, 2023) are described below.

This experiment concerns the target wild-type Rattus norvegicus GABA transporter 1 (rGAT1WT) (Rattus norvegicus, UniProt P23978). As to conditions: one partner purified.

B1: Fab 9D5 (Fab, V domains shown)
VH: EVQLVESGGGLVKPGGSLKLSCAASGFTFSSYAMSWVRQSPEKRLEWVAEISSGGRYIYYSDTVTGRFTISRDNARNILHLEMSSLRSEDTAMYYCARGEVRQRGFDYWGQGTTLTVSS
VL: ENVLTQSPAIMSTSPGEKVTMTCRASSSVGSSYLHWYQQKSGASPKLWIYSTSNLASGVPARFSGSGSGTSYSLTISSVEAEDAATYYCQQFSGYPLTFGSGTKLEMK
notes: heavy chain of Fab 9D5; light chain of Fab 9D5; Heavy and light chains were synthesized and cloned into pFastBac Dual with an N-terminal GP64 signal peptide; Only VH and VL are modeled in PDB 8GNK; also called 9D5 Fab; 9D5-Fab; source: Sf9 cells, baculovirus, exported into the media; purified (Ni-NTA, SEC on Superdex 75)
Consider B1, for which the binding result is given as “no binding (tested: 50 ng of 9D5)”.
